Reference: patent US20240261333A1 (published 2024)
Each block holds one binder with its values, some of them ahead of it.

Key:
Test in all cases: co-IP with anti-FLAG, N-FLAG B3GNT2, mass spectrometry
GBF1 = target: T1, GBF1 (human, UniProt Q92538 1-1860, limits assumed)
T1 construct: also called NP_001186307.1 (+13)
Description: (§1) Cells were plated in 10-cm cell culture dishes and grown to 60-80% confluency. For each condition, two biological replicates were harvested for co-IP. Cells were washed with PBS and 4 mL of lysis buffer (20 mM HEPES, 1% Triton X-100, 150 mM NaCl, 1 mM EDTA, and 10% glycerol) containing protease inhibitor cocktail was added. Cells were scraped and lysate was incubated at 4° C. under rotary agitation for 1 h. Lysate was centrifuged at 14,000×g for 10 min at 4° C. Supernatant was transferred to a new tube and an aliquot was taken as the input. […] For Western blots, 10 μg/mL Chicken Anti-FLAG (Aves labs ET-DY100) and IgY control (R&D Systems AB-101-C) antibodies were biotinylated (Thermo Fisher Scientific 90407) and added to the respective conditions. Lysates with antibodies were incubated at 4° C. under rotary agitation overnight. For each mL of lysate, 50 μL of Pierce Protein A/G Magnetic Beads (Mass spectrometry; Thermo Fisher Scientific 88803) or Pierce Streptavidin Magnetic Beads (Western blot; Thermo Fisher Scientific 88817) was washed twice with lysis buffer. Lysates with antibodies were added to the beads and incubated at 4° C. under rotary agitation for 4 h. Beads were washed with lysis buffer 3 times and resuspended in lysis buffer for storage.
(§2) Magnetic beads were resuspended in 100 mM Tris pH 7.8, reduced, alkylated and digested with trypsin at 37° ° C. overnight. This solution was subjected to solid phase extraction to concentrate the peptides and remove unwanted reagents followed by injection onto a Shimadzu HPLC with fraction collector. Eight fractions were collected and after concentration were injected on a Waters NanoAcquity HPLC equipped with a self-packed Aeris 3 μm C18 analytical column 0.075 mm by 20 cm, (Phenomenex). Peptides were eluted using standard reverse-phase gradients. The effluent from the column was analyzed using a Thermo Orbitrap Elite mass spectrometer (nanospray configuration) operated in a data dependent manner for 54 minutes. The resulting fragmentation spectra were correlated against the known database using Proteome Discover 1.4 (Thermo Fisher Scientific).

CHCHD3 = target: T2, CHCHD3 (human, UniProt Q9NX63 2-227, limits assumed)
T2 construct: also called NP_001304106.1 (+1)
T2 sequence (looked up): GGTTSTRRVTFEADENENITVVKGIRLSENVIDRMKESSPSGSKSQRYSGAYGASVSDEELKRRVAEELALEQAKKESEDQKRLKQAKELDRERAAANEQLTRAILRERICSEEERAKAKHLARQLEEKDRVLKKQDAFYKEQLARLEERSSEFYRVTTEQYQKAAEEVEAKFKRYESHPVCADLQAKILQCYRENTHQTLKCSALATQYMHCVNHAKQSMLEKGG
Description: as §1, §2

GEMIN4 = target: T3, GEMIN4 (human, UniProt P57678 1-1058)
T3 construct: also called NP_056536.2 (+2)
T3 sequence (looked up): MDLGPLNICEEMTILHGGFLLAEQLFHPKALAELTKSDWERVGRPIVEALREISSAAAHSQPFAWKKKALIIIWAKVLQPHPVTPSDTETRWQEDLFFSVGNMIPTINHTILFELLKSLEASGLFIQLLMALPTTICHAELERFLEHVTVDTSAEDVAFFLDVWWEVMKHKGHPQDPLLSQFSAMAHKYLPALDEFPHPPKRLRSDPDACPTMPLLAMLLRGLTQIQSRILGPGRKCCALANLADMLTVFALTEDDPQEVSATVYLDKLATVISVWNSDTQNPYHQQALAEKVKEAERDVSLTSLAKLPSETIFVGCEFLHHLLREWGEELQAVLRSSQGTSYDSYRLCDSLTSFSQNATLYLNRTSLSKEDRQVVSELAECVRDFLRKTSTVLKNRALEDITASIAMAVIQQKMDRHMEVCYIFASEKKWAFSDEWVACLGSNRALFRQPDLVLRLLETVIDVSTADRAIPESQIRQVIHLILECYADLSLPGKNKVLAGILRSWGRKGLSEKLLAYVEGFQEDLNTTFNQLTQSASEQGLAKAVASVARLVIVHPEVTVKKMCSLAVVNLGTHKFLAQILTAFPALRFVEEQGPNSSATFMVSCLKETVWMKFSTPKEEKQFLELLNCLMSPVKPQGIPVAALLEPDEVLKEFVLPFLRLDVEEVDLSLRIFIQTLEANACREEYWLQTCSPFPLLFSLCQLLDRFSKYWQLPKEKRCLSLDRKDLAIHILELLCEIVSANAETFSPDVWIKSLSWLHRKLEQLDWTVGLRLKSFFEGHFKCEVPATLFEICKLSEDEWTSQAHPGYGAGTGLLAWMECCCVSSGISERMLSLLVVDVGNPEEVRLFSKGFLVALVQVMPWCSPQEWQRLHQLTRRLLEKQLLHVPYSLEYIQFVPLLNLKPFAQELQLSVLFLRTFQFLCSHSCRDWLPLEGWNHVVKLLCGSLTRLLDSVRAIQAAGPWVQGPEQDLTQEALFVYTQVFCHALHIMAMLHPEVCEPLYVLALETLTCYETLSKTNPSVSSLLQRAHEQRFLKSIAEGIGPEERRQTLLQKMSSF
Description: as §1, §2

CPSF7 = target: T4, CPSF7 (human, UniProt Q8N684 1-471)
T4 construct: also called NP_001129512.1 (+5)
T4 sequence (looked up): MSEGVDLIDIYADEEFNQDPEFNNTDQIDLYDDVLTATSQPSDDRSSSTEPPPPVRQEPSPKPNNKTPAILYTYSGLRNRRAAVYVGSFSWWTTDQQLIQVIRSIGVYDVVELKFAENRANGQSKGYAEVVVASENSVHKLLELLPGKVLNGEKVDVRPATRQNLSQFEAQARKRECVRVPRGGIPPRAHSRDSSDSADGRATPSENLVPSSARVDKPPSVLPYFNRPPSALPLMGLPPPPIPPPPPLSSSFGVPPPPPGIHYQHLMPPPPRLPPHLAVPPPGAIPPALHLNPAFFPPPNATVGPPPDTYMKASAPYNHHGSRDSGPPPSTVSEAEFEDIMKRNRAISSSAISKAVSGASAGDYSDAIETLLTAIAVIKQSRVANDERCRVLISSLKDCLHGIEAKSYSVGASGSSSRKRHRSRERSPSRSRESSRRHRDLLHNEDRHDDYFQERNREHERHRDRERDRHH
Description: as §1, §2

RPL6 = RPL6 (human, UniProt Q02878 2-288)
Description: as §1, §2

TPM2 = target: T5, TPM2 (human, UniProt P07951-2 1-284, limits assumed)
T5 construct: also called NP_001288155.1
Description: as §1, §2

co-IP mass spectrometry count (GBF1): 0
co-IP mass spectrometry count (CHCHD3): 16
co-IP mass spectrometry count (GEMIN4): 0
B1: N-terminal FLAG tagged B3GNT2 (enzyme, human, UniProt Q9NY97 1-397, looked up)
chain: MSVGRRRIKLLGILMMANVFIYFIMEVSKSSSQEKNGKGEVIIPKEKFWKISTPPEAYWNREQEKLNRQYNPILSMLTNQTGEAGRLSNISHLNYCEPDLRVTSVVTGFNNLPDRFKDFLLYLRCRNYSLLIDQPDKCAKKPFLLLAIKSLTPHFARRQAIRESWGQESNAGNQTVVRVFLLGQTPPEDNHPDLSDMLKFESEKHQDILMWNYRDTFFNLSLKEVLFLRWVSTSCPDTEFVFKGDDDVFVNTHHILNYLNSLSKTKAKDLFIGDVIHNAGPHRDKKLKYYIPEVVYSGLYPPYAGGGGFLYSGHLALRLYHITDQVHLYPIDDVYTGMCLQKLGLVPEKHKGFRTFDIEEKNKNNICSYVDLMLVHSRKPQEMIDIWSQLQSAHLKC
notes: FLAG-tagged ORF overexpressed in cells; pulled down from lysate with mouse anti-FLAG; also called N-FLAG B3GNT2; N-term FLAG; not shown: N-terminal FLAG tag

co-IP/MS count, N-term FLAG (CPSF7): 12
co-IP/MS count, N-term FLAG (RPL6): 10
co-IP/MS count, N-term FLAG (TPM2): 0
B2: N-terminal FLAG tagged B3GNT2 (enzyme, human, UniProt Q9NY97 1-397, looked up)
chain: B1 chain
notes: FLAG-tagged ORF overexpressed in A375 cells; pulled down from the lysate with mouse anti-FLAG; also called N-FLAG B3GNT2; N-term FLAG; not shown: N-terminal FLAG tag
